Assay results from article PMC11883000, “Structure-function relationship of ASH1L and histone H3K36 and H3K4 methylation” (Nature Communications, 2025).

Target: Substitution of D2595 or D2584 with alanine (ASH1L PHD finger mutants)
Test: not stated; wild type and mutants of ASH1LPHD with H3K4me3 peptide (Fig. 3c, Supplementary Figs. 5 and 6); the legend names tryptophan fluorescence, MST or NMR, which for each mutant is marked only in the figure

- Kd: 5 to 7 µM
Substance: histone H3K4me3 peptide (aa 1-12 of H3) (from UniProt P68431 2-13)
